According to US20200407722, “DNA APTAMER […] BINDING TO TB7.7, AND USE […]” (MD APTUS INC., published 2020):

What was measured:
TB7.7 = target: T1, TB7.7 (Mycobacterium tuberculosis H37Rv, UniProt P9WJ11 P9WJ11:1-81); assay: fluorescence of Cy3-aptamer bound to TB7.7 magnetic beads; 20 mM Tris, 50 mM NaCl, 5 mM KCl, 5 mM MgCl2, pH 8.0; conditions: tags: His6-tag, pET32a vector, expressed in E. coli BL21(DE3); label: Cy3
T1 sequence: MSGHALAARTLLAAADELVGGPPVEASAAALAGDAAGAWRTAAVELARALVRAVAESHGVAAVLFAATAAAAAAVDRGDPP
Procedure: 16 μg of TB7.7 was mixed with 10 μL of magnetic beads, and then incubated in 100 μL of a binding buffer (20 mM Tris, 50 mM NaCl, 5 mM KCl, 5 mM MgCl₂, pH 8.0) for 1 hour. To separate unbound TB7.7, washing was performed twice with a binding buffer. Subsequently, the resulting mixture was incubated together with various concentrations of a Cy3-labeled aptamer for an hour, and an unbound aptamer was removed by washing. The amount of Cy3-labeled ssDNA aptamer bound to the magnetic beads with TB7.7 immobilized thereon was measured by fluorescence measurement (1420 Victor Multilabel counter, PerkinElmer, USA) by separating only Cy3-labeled ssDNA bound to TB7.7.

CFP10 = CFP10 (Mycobacterium tuberculosis, UniProt P9WNK5 P9WNK5:2-100); assay: impedance biosensor, 10 pM protein in PBS; aptamer taken as TG4
Source text: (§1) At this time, each protein was mixed at a concentration of 10 pM with PBS and used for detection.

ESAT6 = ESAT6 (Mycobacterium tuberculosis, UniProt P9WNK7 P9WNK7:2-95); assay: as above
Source text: as §1

B1: TG5 (ssDNA)
DNA: CACCTAATACGACTCACTATAGCGGATCAGAATTTCTGTAATTAAGCGATAAATTGCTTAATAGGCACTCTCTGGCTCGAACAAGCTTGC
Work on B1 yielded a Kd (TB7.7) of 106 nM.

B2: TG6 (ssDNA)
DNA: CACCTAATACGACTCACTATAGCGGATCCGACACGAAGGATACTCAGTAGTACCCAGGTTGGTAGGGTAGCCTGGCTCGAACAAGCTTGC
With B2 the Kd (TB7.7) was 34.3 nM.

B3: TG4 (ssDNA)
DNA: CACCTAATACGACTCACTATAGCGGATCCGAAAGTTGTTAGTAGACTTAGGGGAGGGTTAAAGTGGGGTGGCTGGCTCGAACAAGCTTGC
For B3, the Kd (TB7.7) was 37.5 nM.

B4: TG4 immobilized on gold electrode (ssDNA)
DNA: CACCTAATACGACTCACTATAGCGGATCCGAAAGTTGTTAGTAGACTTAGGGGAGGGTTAAAGTGGGGTGGCTGGCTCGAACAAGCTTGC
B4: no binding (CFP10); no binding (ESAT6).
